Among the data in article PMC10786891, “Massively parallel profiling of RNA-targeting CRISPR-Cas13d” are Kd values, retold here.

In general, Kd refers to the free concentration of one partner at which half of the binding sites on the other are occupied at equilibrium, for simple one-to-one binding. Read a high Kd as weaker binding.

Changes are numbered by the printed parent chain. In names and notes the source's numbering stands.

B1: target 1 C7G,A18U (mixed)
RNA 1: CACCCGUGCAAAAAUGCAGGGGUCUAAAACUGAGCGGAUAACCUCUCUAUGG
RNA 2: GGGAAUGGAUCCACAUCUACGAAUUCGUACCAUUGAGAGGUUAUGCGCUCACCGAGAUCGGAAGAGCACACGU
B2: target 1 C2A,U19G (mixed)
RNA 1: B1 RNA 1
RNA 2: B1 RNA 2 with U33G, U34A, G45C, C50A
B3: target 1 U8G,G17U (mixed)
RNA 1: B1 RNA 1
RNA 2: B1 RNA 2 with U34A, G35U, U44G, G45C
B4: target 1 A1G,C6A (mixed)
RNA 1: B1 RNA 1
RNA 2: B1 RNA 2 with U34A, G45C, C46A, A51G
B5: target 1 insU 3' of 14,insC 3' of 12 (mixed)
RNA 1: B1 RNA 1
RNA 2: GGGAAUGGAUCCACAUCUACGAAUUCGUACCAUAGAGAUGGCUUAUCCGCUCACCGAGAUCGGAAGAGCACACGU
B6: target 1 insC 3' of 17,insA 3' of 12 (mixed)
RNA 1: B1 RNA 1
RNA 2: B5 RNA 2 with A36C, G37A, A38G, U39A, C42A
B7: target 1 C4U,G12U (mixed)
RNA 1: B1 RNA 1
RNA 2: B1 RNA 2 with U34A, G40U, G45C, C48U
B8: target 1 insC 3' of 20,insC 3' of 13 (mixed)
RNA 1: B1 RNA 1
RNA 2: B5 RNA 2 with U33C, A34U, G35A, A36G, G37A, A38G, U39A, G41C, C42G
B9: target 1 C4A,C22A (mixed)
RNA 1: B1 RNA 1
RNA 2: B1 RNA 2 with C30A, U34A, G45C, C48A
B10: target 1 insC 3' of 17,insU 3' of 13 (mixed)
RNA 1: B1 RNA 1
RNA 2: B5 RNA 2 with A36C, G37A, A38G, U39A, G41U, C42G
B11: target 1 A9C,A18U (mixed)
RNA 1: B1 RNA 1
RNA 2: B1 RNA 2 with A43C, G45C
B12: target 1 insG 3' of 11,insA 3' of 3 (mixed)
RNA 1: B1 RNA 1
RNA 2: GGGAAUGGAUCCACAUCUACGAAUUCGUACCAUAGAGAGGUGUAUCCGCUACACCGAGAUCGGAAGAGCACACGU
B13: target 1 insA 3' of 13,insA 3' of 12 (mixed)
RNA 1: B1 RNA 1
RNA 2: B5 RNA 2 with U39G, G40A, C42A
B14: target 1 insA 3' of 15,insA 3' of 4 (mixed)
RNA 1: B1 RNA 1
RNA 2: B12 RNA 2 with G39A, U41G, G42U, U50A, A51U
B15: target 1 C2U,A18C (mixed)
RNA 1: B1 RNA 1
RNA 2: B1 RNA 2 with U34C, G45C, C50U
B16: target 1 insA 3' of 13,insU 3' of 12 (mixed)
RNA 1: B1 RNA 1
RNA 2: B5 RNA 2 with U39G, G40A, C42U
B17: target 1 U10G,U11A (mixed)
RNA 1: B1 RNA 1
RNA 2: B1 RNA 2 with U34A, U41A, U42G, G45C
B18: target 1 insA 3' of 21,insG 3' of 20 (mixed)
RNA 1: B1 RNA 1
RNA 2: B5 RNA 2 with U33A, A34G, G35U, U39G, G40A, C42G
B19: target 1 del3,del4 (mixed)
RNA 1: B1 RNA 1
RNA 2: GGGAAUGGAUCCACAUCUACGAAUUCGUACCAUAGAGAGGUUAUCCGCACCGAGAUCGGAAGAGCACACGU
B20: target 1 insG 3' of 18,insA 3' of 4 (mixed)
RNA 1: B1 RNA 1
RNA 2: B12 RNA 2 with A36G, G37A, A38G, G39A, U41G, G42U, U50A, A51U
B21: target 1 insA 3' of 22,insA 3' of 21 (mixed)
RNA 1: B1 RNA 1
RNA 2: B5 RNA 2 with C31A, A32C, U33A, G35U, U39G, G40A, C42G
B22: target 1 insC 3' of 10,insA 3' of 3 (mixed)
RNA 1: B1 RNA 1
RNA 2: B12 RNA 2 with G42U, U43C
B23: target 1 insC 3' of 13,insC 3' of 11 (mixed)
RNA 1: B1 RNA 1
RNA 2: B5 RNA 2 with U39G, G40C, C42U, U43C
B24: target 1 del1,del3 (mixed)
RNA 1: B1 RNA 1
RNA 2: B19 RNA 2 with A49C
B25: target 1 insU 3' of 17,insA 3' of 17 (mixed)
RNA 1: B1 RNA 1
RNA 2: B5 RNA 2 with A36U, G37A, U39G, G40A, C42G
B26: target 1 C7U,C21U (mixed)
RNA 1: B1 RNA 1
RNA 2: B1 RNA 2 with C31U, U34A, G45U
B27: target 1 U10C,U11C (mixed)
RNA 1: B1 RNA 1
RNA 2: B1 RNA 2 with U34A, U41C, U42C, G45C
B28: target 1 U8C,U11A (mixed)
RNA 1: B1 RNA 1
RNA 2: B1 RNA 2 with U34A, U41A, U44C, G45C

In the data set the target is T1, EsCas13d, nuclease-dead (Eubacterium siraeum, UniProt B0MS50, R295A;H300A;R849A;H854A).
T1 sequence: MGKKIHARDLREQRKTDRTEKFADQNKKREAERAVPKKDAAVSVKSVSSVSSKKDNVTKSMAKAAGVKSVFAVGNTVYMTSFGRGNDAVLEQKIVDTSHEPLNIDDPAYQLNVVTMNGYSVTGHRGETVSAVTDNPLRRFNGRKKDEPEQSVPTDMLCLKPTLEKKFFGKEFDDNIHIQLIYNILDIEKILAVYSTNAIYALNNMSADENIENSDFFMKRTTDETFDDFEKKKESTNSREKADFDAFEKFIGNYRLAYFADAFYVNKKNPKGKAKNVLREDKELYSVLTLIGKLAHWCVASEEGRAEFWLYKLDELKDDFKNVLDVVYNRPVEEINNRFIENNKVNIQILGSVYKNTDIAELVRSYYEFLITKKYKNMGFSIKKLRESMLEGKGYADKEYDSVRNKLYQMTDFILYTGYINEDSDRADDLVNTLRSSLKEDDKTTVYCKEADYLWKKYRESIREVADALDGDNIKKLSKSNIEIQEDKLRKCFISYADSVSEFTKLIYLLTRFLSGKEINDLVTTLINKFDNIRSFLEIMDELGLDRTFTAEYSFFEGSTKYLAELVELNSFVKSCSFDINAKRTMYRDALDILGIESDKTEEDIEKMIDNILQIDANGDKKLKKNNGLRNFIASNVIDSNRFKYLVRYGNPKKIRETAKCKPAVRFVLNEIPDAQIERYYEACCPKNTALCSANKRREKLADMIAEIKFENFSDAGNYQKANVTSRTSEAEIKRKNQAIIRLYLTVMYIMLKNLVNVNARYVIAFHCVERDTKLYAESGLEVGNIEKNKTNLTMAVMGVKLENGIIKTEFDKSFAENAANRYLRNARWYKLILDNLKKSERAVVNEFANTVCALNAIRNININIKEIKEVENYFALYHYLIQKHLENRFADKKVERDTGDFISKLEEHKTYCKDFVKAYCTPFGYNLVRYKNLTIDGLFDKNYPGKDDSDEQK
Kind of data set: crRNA (strand 1, pre-loaded); Mg2+; 40 mM Tris-HCl pH 7.5, 150 mM NaCl, 6 mM MgCl2, 1 mM DTT, 0.1% Tween-20, 0.2 mg/ml BSA; 25 C; 10 min per concentration, then washed. The following applies: tags: His6-TwinStrep-SUMO cleaved; N-terminal SNAP kept (SNAP-Surface 488); label: 3' end held by stalled T7 RNA polymerase.
With B1, the Kd amounted to 32 ± 6 nM. Turning to B2, the Kd was determined as 48 ± 5 nM. To B3 belongs 91 ± 14 nM; to B4, 7 ± 0.35 nM. To B5 belongs 50 ± 10 nM; to B6, 32.9 ± 2.7 nM; to B7, 36 ± 8 nM.

B8 yielded a Kd of 7.2 ± 0.6 nM. For B9, binding was characterised by a dissociation constant (Kd) of 5.7 ± 0.8 nM. This Kd and that of the molecule before are within 1.5-fold of each other. For B10 the value was 80 ± 40 nM; for B11, 63 ± 10 nM. For B12 the value was 17.5 ± 1.2 nM; for B13, 11.8 ± 0.8 nM. For B14 the value was 7.7 ± 0.9 nM. Regarding B15, binding was put at a Kd of 48.9 ± 2.9 nM. B16: the dissociation constant Kd came to 4.2 ± 0.5 nM.

In turn, B17 yielded a Kd of 12.9 ± 1 nM. For B18 the value was 24 ± 4 nM; for B19, 14.4 ± 1.2 nM; for B20, 43 ± 5 nM. For B21 the value was 16.2 ± 0.9 nM; for B22, 12.9 ± 0.6 nM; for B23, 14.2 ± 1 nM.

B24 came in with a Kd of 45 ± 13 nM. To B25 belongs 30.5 ± 2.2 nM.

Regarding B26, the equilibrium dissociation constant (Kd) turned out to be 6 ± 0.4 nM. As for B27, the Kd worked out at 24.7 ± 2.9 nM.

For the molecule B28, the affinity, expressed as Kd, was 32.5 ± 3.2 nM.
